Reference: patent publication US8299023 (Hoffmann-La Roche, dated 2012)
Numbered stars: 1 amine (or outer) side, 2 acyl side, 3 side chain; on linkers, the order of the positions; unused ones are H or OH. Square brackets hold non-standard residues; d marks the D form. Primed or numbered codes have the meaning given here. HomPqa = 3-hydroxy-2-(4-oxo-6-piperazin-1-yl-4H-quinazolin-3-yl)-propionic acid, O=C(C(CO[*:3])n1cnc2ccc(N3CCN([*:1])CC3)cc2c1=O)[*:2]; Pdp = (6-oxo-2-piperazin-1-yl-1,6-dihydropurin-7-yl)-acetic acid, O=C(Cn1cnc2nc(N3CCN([*:1])CC3)[nH]c(=O)c21)[*:2]; Dqa = (6-[1,4]diazepan-1-yl-4-oxo-4H-quinazolin-3-yl)-acetic acid, O=C(Cn1cnc2ccc(N3CCCN([*:1])CC3)cc2c1=O)[*:2]; Pipa = (1-oxo-7-piperazin-1-yl-1H-isoquinolin-2-yl)-acetic acid, O=C(Cn1ccc2ccc(N3CCN([*:1])CC3)cc2c1=O)[*:2]; Appa = (6-Amino-2-piperazin-1-yl-9H-purin-8-yl)-acetic acid, Nc1nc(N2CCN([*:1])CC2)nc2[nH]c(CC(=O)[*:2])nc12; Cip = (5-Piperazin-1-yl-indole-1-yl)-acetic acid, O=C(Cn1ccc2cc(N3CCN([*:1])CC3)ccc21)[*:2]; Cba′ = (4-Aminomethyl-biphenyl-3-yl)-acetic acid, O=C(Cc1cc(-c2ccccc2)ccc1CN[*:1])[*:2]; Bqa = ((1R,4S)-6-2-Aza-bicyclo[2.2.1]hept-5-yl-4-oxo-4H-quinazolin)-acetic acid; Ppa = (2-piperazin-1-yl-purin-7-yl)-acetic acid; NMeR = CN[C@@H](CCCNC(=N)N)C(=O)O

T1: Y5R
T1 sequence (Q15761 whole entry, species assumed, looked up): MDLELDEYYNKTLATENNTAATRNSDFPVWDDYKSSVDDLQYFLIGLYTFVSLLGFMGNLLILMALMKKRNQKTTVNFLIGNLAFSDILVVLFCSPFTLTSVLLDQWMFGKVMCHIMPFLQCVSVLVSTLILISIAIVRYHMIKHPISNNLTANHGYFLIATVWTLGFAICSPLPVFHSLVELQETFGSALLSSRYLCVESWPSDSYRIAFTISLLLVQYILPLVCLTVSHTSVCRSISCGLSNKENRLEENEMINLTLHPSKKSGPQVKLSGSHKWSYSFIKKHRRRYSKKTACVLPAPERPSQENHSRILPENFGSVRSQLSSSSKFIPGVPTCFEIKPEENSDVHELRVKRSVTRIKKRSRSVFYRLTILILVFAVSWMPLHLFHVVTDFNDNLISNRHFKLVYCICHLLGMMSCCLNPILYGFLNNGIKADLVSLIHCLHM

T2: human NPY2 receptor (human, UniProt P49146 1-381)
T2 sequence (looked up): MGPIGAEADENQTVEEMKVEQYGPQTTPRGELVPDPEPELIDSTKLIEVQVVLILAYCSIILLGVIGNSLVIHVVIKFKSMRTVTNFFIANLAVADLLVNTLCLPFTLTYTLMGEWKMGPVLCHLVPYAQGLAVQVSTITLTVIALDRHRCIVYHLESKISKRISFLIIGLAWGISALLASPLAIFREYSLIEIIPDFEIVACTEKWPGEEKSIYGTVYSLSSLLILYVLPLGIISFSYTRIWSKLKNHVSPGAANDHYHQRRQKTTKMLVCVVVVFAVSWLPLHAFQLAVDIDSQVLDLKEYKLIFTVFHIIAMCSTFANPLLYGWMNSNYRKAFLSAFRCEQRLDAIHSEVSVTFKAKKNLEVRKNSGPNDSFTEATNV


How the values were obtained:
Assay in all cases: cell-based or functional assay
Y1R = target: Y1R
Chain of Y1R (P25929 whole entry): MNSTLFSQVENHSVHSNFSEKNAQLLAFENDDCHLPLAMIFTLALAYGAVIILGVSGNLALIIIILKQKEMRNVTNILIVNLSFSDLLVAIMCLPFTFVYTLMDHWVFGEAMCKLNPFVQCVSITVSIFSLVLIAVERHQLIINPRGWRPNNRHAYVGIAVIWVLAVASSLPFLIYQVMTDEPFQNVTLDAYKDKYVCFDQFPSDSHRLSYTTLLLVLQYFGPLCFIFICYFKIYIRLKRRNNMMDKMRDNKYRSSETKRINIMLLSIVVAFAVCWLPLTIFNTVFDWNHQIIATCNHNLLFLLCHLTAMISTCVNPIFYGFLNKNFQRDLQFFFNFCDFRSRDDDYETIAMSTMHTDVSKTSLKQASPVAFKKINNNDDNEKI

Y5R = target: T1, Y5R
human NPY2 receptor = target: T2, human NPY2 receptor
Y4R = target: Y4R

Row | Binder | Y1R EC50 (nM) FLIPR (Y1R) [nM] | Y5R EC50 (nM) FLIPR (Y5R) [nM] | Y2R EC50 (nM) FLIRR (Ca flux, FLIPR) (human NPY2 receptor) [nM] | Y2R EC50 (nM) cAMP (human NPY2 receptor) [nM] | Y4R EC50 (nM) FLIPR (Y4R) [nM]
1 | Ac-IK[Cba′]RHYLNWVTRQ[NMeR]Y-NH2 [Ac-Ile-Lys-Cba-Arg-His-Tyr-Leu-Asn-Trp-Val-Thr-Arg-Gln-(NMe)Arg-Tyr-NH2] | > 30000 | > 30000 | 0.51 | 1.97 | > 30000
2 | Ac-IK[Cip]RHYLNWVTRQ[NMeR]Y-NH2 (SMILES CC[C@H](C)[C@H](NC(C)=O)C(=O)N[C@@H](CCCCN)C(=O)N1CCN(c2ccc3c(ccn3CC(=O)N[C@@H](CCCNC(=N)N)C(=O)N[C@@H](Cc3c[nH]cn3)C(=O)N[C@@H](Cc3ccc(O)cc3)C(=O)N[C@@H](CC(C)C)C(=O)N[C@@H](CC(N)=O)C(=O)N[C@@H](Cc3c[nH]c4ccccc34)C(=O)N[C@H](C(=O)N[C@H](C(=O)N[C@@H](CCCNC(=N)N)C(=O)N[C@@H](CCC(N)=O)C(=O)N(C)[C@@H](CCCNC(=N)N)C(=O)N[C@@H](Cc3ccc(O)cc3)C(N)=O)[C@@H](C)O)C(C)C)c2)CC1) [Ac-Ile-Lys-Cip-Arg-His-Tyr-Leu-Asn-Trp-Val-Thr-Arg-Gln-(NMe)Arg-Tyr-NH2] | > 30000 | 10700 | 0.14 | 0.36 | > 30000
3 | Ac-IK[HomPqa]RHYLNWVTRQ[NMeR]Y-NH2 [Ac-Ile-Lys-HomPqa-Arg-His-Tyr-Leu-Asn-Trp-Val-Thr-Arg-Gln-(NMe)Arg-Tyr-NH2] | > 9000 | 4940 | 0.6 | 4.35 | 2790
4 | Ac-IK[Dqa]RHYLNWVTRQ[NMeR]Y-NH2 [Ac-Ile-Lys-Dqa-Arg-His-Tyr-Leu-Asn-Trp-Val-Thr-Arg-Gln-(NMe)Arg-Tyr-NH2] | > 9000 | 6030 | 0.25 | 0.35 | > 9000
5 | Ac-IK[Pdp]RHYLNWVTRQ[NMeR]Y-NH2 (SMILES CC[C@H](C)[C@H](NC(C)=O)C(=O)N[C@@H](CCCCN)C(=O)N1CCN(c2nc3ncn(CC(=O)N[C@@H](CCCNC(=N)N)C(=O)N[C@@H](Cc4c[nH]cn4)C(=O)N[C@@H](Cc4ccc(O)cc4)C(=O)N[C@@H](CC(C)C)C(=O)N[C@@H](CC(N)=O)C(=O)N[C@@H](Cc4c[nH]c5ccccc45)C(=O)N[C@H](C(=O)N[C@H](C(=O)N[C@@H](CCCNC(=N)N)C(=O)N[C@@H](CCC(N)=O)C(=O)N(C)[C@@H](CCCNC(=N)N)C(=O)N[C@@H](Cc4ccc(O)cc4)C(N)=O)[C@@H](C)O)C(C)C)c3c(=O)[nH]2)CC1) [Ac-Ile-Lys-Pdp-Arg-His-Tyr-Leu-Asn-Trp-Val-Thr-Arg-Gln-(NMe)Arg-Tyr-NH2] | > 9000 | > 9000 | 0.037 | 0.24 | > 9000
6 | Ac-IK[Ppa]RHYLNWVTRQ[NMeR]Y-NH2 [Ac-Ile-Lys-Ppa-Arg-His-Tyr-Leu-Asn-Trp-Val-Thr-Arg-Gln-(NMe)Arg-Tyr-NH2] | > 5000 | 1100 | 0.45 | 0.12 | > 5000
7 | Ac-IK[Appa]RHYLNWVTRQ[NMeR]Y-NH2 [Ac-Ile-Lys-Appa-Arg-His-Tyr-Leu-Asn-Trp-Val-Thr-Arg-Gln-(NMe)Arg-Tyr-NH2] | > 5000 | 3300 | 0.156 | 0.18 | > 5000
8 | Ac-IK[Bqa]RHYLNWVTRQ[NMeR]Y-NH2 [Ac-Ile-Lys-Bqa-Arg-His-Tyr-Leu-Asn-Trp-Val-Thr-Arg-Gln-(NMe)Arg-Tyr-NH2] | > 5000 | 2870 | 0.072 | 0.17 | > 5000
9 | Ac-IK[Pipa]RHYLNWVTRQ[NMeR]Y-NH2 (SMILES CC[C@H](C)[C@H](NC(C)=O)C(=O)N[C@@H](CCCCN)C(=O)N1CCN(c2ccc3ccn(CC(=O)N[C@@H](CCCNC(=N)N)C(=O)N[C@@H](Cc4c[nH]cn4)C(=O)N[C@@H](Cc4ccc(O)cc4)C(=O)N[C@@H](CC(C)C)C(=O)N[C@@H](CC(N)=O)C(=O)N[C@@H](Cc4c[nH]c5ccccc45)C(=O)N[C@H](C(=O)N[C@H](C(=O)N[C@@H](CCCNC(=N)N)C(=O)N[C@@H](CCC(N)=O)C(=O)N(C)[C@@H](CCCNC(=N)N)C(=O)N[C@@H](Cc4ccc(O)cc4)C(N)=O)[C@@H](C)O)C(C)C)c(=O)c3c2)CC1) [Ac-Ile-Lys-Pipa-Arg-His-Tyr-Leu-Asn-Trp-Val-Thr-Arg-Gln-(NMe)Arg-Tyr-NH2] | > 5000 | 2340 | 0.045 | 0.18 | > 5000
